{"source": "patent US11904004B2", "about": "“Anti-CD277 antibodies” (INSTITUT NATIONAL DE LA SANTE ET DE LA RECHERCHE MEDICALE …, priority 2010, dated 2024)", "molecules": {"B1": {"name": "mAb 20.1: murine anti-CD277 antibody obtainable from the hybridoma CNCM I-4402; agonist (antibody, V domains shown)", "VH": "QVQLQQSGAELVKPGASVKLSCKASGYTFTRYYLYWVKQRPGQGLEWIGEINPNNGGTKFNEKFKSKATLTVDKSSRTTYIQLSSLTSEDSAVYYCSREDDYDGTPDAMDYWGQGTAVTVSS", "VL": "DIQMNQSPSSLSASLGDTITITCHASQNINLWLSWYQQRPGNIPKLLIYRASNLHTGVPSRFSGSGSATGFTLTISSLQPEDIATYYCQQGHSYPYTFGGGTKLDIK"}}, "key": {"Vγ9Vδ2 T cells": {"test_system": "Vγ9Vδ2 T cells", "assay": "Stimulation and expansion assay of Vγ9Vδ2 T cells from PBMC", "type": "cell-based, human", "description": "P815 (mouse mastocytoma cell line), K562 (chronic myeloid leukaemia cell line), Raji and Daudi (Burkitt lymphoma cell lines) were cultured in RPMI 1640 medium (Invitrogen) and 10% foetal calf serum (FCS) (Eurobio). The PBMC from healthy donors were distributed at 106/ml in 24-well culture plates at 37° C. in 5% CO2 in RPMI 1640 medium and 10% FCS. Polyclonal Vγ9Vδ2 T cells were specifically expanded with 3 μmol/l of Phosphostim (BrHPP molecule, Innate Pharma, Marseille, France) and 100 U/ml IL-2 (Chiron, Basel, Switzerland) for 12 days. Phosphostim was added once at the onset of the culture. Every 2 days, one-half of the culture medium volume was replaced with fresh medium containing 100 U/ml IL-2.\nPBMC were plated and stimulated as described in the paragraph: cell lines and expansion of γδ T cells, except cells were stimulated with anti-CD277 mAbs (10 μg/ml); or control isotypes (10 μg/ml); and with or without BrHPP at different concentrations. […] Percentages of Vγ9Vδ2 were measured the first day and the last day of culture as described above. Expanded γδ T cells effectors were stimulated with or without different doses of BrHPP added in anti-CD277 mAbs at 10 μg/ml; or with OKT3 (4 ng/ml) associated with anti-BT3 19.5 mAb in different concentrations. Activation of degranulation was measured by CD107 labelling assay as described above."}, "primary AML blasts": {"test_system": "primary AML blasts", "assay": "NSG mouse/human primary AML blasts xenograft model", "type": "in vivo", "settings": "NSG mice, UPN09 blasts; 250 μg mAb with 15×10^6 Vγ9Vδ2 T cells i.v. twice a week, weeks 8 to 10 post-graft", "description": "NOD-SCID common γ-chain knockout mice (NSG) were purchased from Charles River France or bred in-house and maintained under specific pathogen-free conditions. All animal procedures were in accordance with protocols approved by the local Committee for Animal Experiments. Healthy 6- to 8-weeks-old female mice (n=15) received an injection of 0.2×10^6 luciferase transduced-U937 cells on Day 0, as described^13, and were then randomly assigned in 5 groups to receive intravenous injections of post-expansion-purified Vγ9Vδ2 T cells on Day 1 (30×10^6, 98.8% CD3+TCRVδ2+; Unité de Thérapie Cellulaire et Génique de Nantes) alone or combined to anti-BTN3A 20.1 mAb (250 μg) on Day 2 and 6. Controls comprised NSG mice infused with PBS, or anti-BTN3A 20.1 mAb alone. Mice were imaged with a Photon Imager (Biospace Lab, Paris, France) at different days. For the Primary AML blasts model, NSG mice received sublethal irradiation (2 Gy). On the day after, they received 1×10^6 of CD3-depleted blasts (CD3 depletion Kit, Miltenyi Biotec) isolated from UPN09. […] The peripheral blood number of blasts was quantified during engraftment, before and after treatment by Flow Cytometry (supplementary data 1B). Mice were sacrificed at week 11th post-graft and the number of blasts was quantified in their Bone Marrow (BM)."}}}
{"molecule": "B1", "values": [{"measurement": "proliferation of Vγ9Vδ2 cells (CFSE)", "setting": "Vγ9Vδ2 T cells; PBMC + IL-2", "result": "associated with the proliferation"}, {"measurement": "expansion of Vγ9Vδ2 T cells", "setting": "Vγ9Vδ2 T cells; PBMC + IL-2, 15 days of culture", "result": "expanded"}, {"measurement": "circulating blasts (Percentage of variation of the absolute number of blasts in blood before and 4 days after the end of treatment)", "setting": "primary AML blasts", "result": "37.38±39.89"}]}
